Source: article PMC8456507

B1: NCRm (dsDNA)
DNA 1: AGCTTAAGTAATACGGCTATGCAAGGCA
DNA 2: TGCCTTGCATAGCCGTATTACTTAAGCT
B2: NCR (dsDNA)
DNA 1: AGCTTAAGTAACGCCATTTTGCAAGGCA
DNA 2: TGCCTTGCAAAATGGCGTTACTTAAGCT

Molecular target: rYY1 (UniProt Q00899 1-414)
Assay: pull-down

Chain of rYY1 (Q00899 whole entry): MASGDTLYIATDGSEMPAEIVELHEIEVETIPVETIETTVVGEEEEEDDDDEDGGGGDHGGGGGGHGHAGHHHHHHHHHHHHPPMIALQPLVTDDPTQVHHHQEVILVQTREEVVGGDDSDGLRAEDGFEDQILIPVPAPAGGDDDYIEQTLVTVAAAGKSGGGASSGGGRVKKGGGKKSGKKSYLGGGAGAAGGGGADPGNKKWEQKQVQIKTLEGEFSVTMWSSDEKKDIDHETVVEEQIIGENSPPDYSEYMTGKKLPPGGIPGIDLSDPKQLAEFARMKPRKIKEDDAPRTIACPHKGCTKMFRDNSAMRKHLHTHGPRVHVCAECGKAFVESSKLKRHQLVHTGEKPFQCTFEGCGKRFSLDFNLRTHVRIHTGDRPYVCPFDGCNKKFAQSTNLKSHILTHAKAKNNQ

Row | Binder | binding result
1 | B1 | no binding
2 | B2 | binds
